Experimental data from US20030200555A1.

Biological target: APP695-derived polypeptide (SEQ.ID.NO.: 28) having the modified sequence NLDV (SEQ.ID.NO.: 7) (human) (UniProt P05067)
Assay: cell-based or functional assay

- production of Aβ in the HEK293T cells (times the level of wild type APP695): 3
Substance: β-secretase (of the HEK293T cells in which the APP β-site mutants were expressed) (from UniProt P56817 46-501) (enzyme)
